Assay results: patent US20120207759A1 (WASHINGTON UNIVERSITY, published 2012)
Values belong to the binder of their own block, whether it stands above or below them.

How the values were obtained:
[1] = molecular target: T1, human HVEM expressed on transduced BJAB cells (full length) (human, UniProt Q92956 39-283); assay: flow cytometry on transduced BJAB cells
T1 construct: also called hHVEM; hHVEM-IRES-GFP
T1 sequence: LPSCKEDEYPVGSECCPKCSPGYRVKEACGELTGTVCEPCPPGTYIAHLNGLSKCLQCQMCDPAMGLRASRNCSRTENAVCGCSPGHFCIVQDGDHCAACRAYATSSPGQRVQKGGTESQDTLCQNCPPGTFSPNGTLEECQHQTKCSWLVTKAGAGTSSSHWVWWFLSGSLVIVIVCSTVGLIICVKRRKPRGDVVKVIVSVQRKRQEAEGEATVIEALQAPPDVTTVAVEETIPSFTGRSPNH
From the text: (§1) FIG. 36 HVEM is a ligand for BTLA. (A) NIH 3T3 cells and BJAB cells were transduced with splenocyte cDNA libraries and were directly stained with anti-Thy1.1-FITC and the C57BL/6 BTLA tetramer-phycoerythrin (Before sorting). These cells were sorted for the highest 0.5% population of BTLA tetramer staining with BTLA-phycoerythrin tetramer and Thy1.1-FITC and were subjected to an additional three rounds of similar sequential purification. After the fourth round of sorting, cell populations were expanded and cells were stained (After sorting). Numbers in each quadrant indicate the percentage of live cells in the indicated gate. (B) BJAB cells were transduced with the retroviruses mHVEM-IRES-GFP (mHVEM; mouse), hHVEM-IRES-GFP (hHVEM; human), 4-1 BB-IRES-GFP (4-1 BB; mouse) and LTβR-1RES-GFP (LTβR; mouse) and were stained with C57BL/6 BTLA tetramer-phycoerythrin or BALB/c BTLA tetramer-phycoerythrin. Numbers in dot plots indicate the percentage of BTLA tetramer staining in the GFP-positive population. (C, D) HVEM activates BTLA phosphorylation and SHP-2 association. EL-4 cells (EL4), BJAB cells expressing GFP (BJAB-GFP) or BJAB cells expressing mouse HVEM (BJAB-mHVEM) were added (+) or not added (−) for 4 min at 37° C. at a density of 25×10⁶ cells/ml. Cells were left untreated (−) or were treated (+) with pervanadate (VO₄) for 4 min. Total cell lysates were prepared and were immunoprecipitated with 6A6 (anti-mouse BTLA), and immunoblots were probed for SHP-2 (C) or for phosphotyrosine (D) in immunoprecipitates (IP) or in lysates without immunoprecipitation. Immunoblots using the isotype control for immunoprecipitation were negative for SHP-2 association (data not shown). Data in C and d are representative of four independent experiments. (E) BJAB cells were transduced with retrovirus mHVEM-ires-GFP or hHVEM-ires-GFP and were stained with human IgG1 isotype control (hIgG1), mB7x-Fc, mBTLA-Fc or hBTLA-Fc followed by anti-human IgG-phycoerythrin. Numbers in dot plots show the percentage of fusion protein staining in the GFP-positive population.

SHP-1 = SHP-1 (UniProt P29350 1-595); assay: co-immunoprecipitation
SHIP = molecular target: T2, SHIP (UniProt Q92835 1-1189, limits assumed); assay: co-immunoprecipitation
T2 sequence (looked up): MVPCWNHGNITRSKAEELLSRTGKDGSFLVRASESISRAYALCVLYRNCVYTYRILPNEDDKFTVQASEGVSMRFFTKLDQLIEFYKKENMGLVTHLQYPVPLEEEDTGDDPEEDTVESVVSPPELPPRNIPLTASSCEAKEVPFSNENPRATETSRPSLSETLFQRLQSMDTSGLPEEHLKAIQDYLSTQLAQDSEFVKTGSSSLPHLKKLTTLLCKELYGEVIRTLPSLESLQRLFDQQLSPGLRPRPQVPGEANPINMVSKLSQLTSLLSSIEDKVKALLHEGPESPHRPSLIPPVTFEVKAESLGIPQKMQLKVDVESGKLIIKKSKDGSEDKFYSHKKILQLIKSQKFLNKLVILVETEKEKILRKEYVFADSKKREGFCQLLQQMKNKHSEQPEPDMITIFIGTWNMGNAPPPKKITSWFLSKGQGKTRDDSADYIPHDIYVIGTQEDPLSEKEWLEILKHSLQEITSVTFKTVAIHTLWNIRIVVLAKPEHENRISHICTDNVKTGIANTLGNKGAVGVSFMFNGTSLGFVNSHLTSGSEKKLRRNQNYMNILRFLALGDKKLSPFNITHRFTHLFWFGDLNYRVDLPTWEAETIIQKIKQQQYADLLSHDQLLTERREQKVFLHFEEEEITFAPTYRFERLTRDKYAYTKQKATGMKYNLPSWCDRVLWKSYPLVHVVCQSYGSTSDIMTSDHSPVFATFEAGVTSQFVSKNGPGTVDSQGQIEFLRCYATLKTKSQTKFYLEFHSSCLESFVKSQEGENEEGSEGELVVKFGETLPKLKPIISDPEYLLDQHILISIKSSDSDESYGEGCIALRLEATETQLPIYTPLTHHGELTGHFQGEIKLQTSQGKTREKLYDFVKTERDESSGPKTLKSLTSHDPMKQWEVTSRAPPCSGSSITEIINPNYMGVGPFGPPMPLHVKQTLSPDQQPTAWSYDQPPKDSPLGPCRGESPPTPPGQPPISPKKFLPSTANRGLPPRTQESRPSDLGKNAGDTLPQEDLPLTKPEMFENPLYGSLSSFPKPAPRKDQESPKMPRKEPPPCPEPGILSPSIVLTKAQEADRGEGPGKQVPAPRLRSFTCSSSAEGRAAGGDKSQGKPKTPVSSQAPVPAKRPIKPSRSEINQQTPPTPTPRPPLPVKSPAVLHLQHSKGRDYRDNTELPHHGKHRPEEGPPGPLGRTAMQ

Grb2 = Grb2 (UniProt P62993 1-217); assay: co-immunoprecipitation
[2] = molecular target: T3, C57BL/6 allele of mouse BTLA expressed on transfected cells as a GFP fusion protein (mouse, UniProt Q7TSA3 30-306); assay: flow cytometry on NIH 3T3 transfectants
T3 construct: also called BJAB.B6 BTLA-GFP; C57BL/6 BTLA; not shown: GFP without its start codon
T3 sequence: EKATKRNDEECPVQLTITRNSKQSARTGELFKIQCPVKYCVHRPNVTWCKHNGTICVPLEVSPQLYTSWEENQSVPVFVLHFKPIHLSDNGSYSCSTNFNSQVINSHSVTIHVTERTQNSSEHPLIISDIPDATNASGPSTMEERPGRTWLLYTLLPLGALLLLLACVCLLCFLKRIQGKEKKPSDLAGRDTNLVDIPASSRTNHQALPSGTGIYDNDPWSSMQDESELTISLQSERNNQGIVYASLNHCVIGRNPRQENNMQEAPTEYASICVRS
From the text: (§2) To test for direct interactions between BTLA and B7x, we made NI H 3T3 cell lines stably expressing the extracellular domains of B7x, BTLA, and programmed death 1 (PD-1) and its ligand (PD-L1), and stained the cells with PD-1 and BTLA tetramers and with PD-L1 and B7x Fc fusion proteins.

[3] = molecular target: T4, mouse LTβR expressed on transduced BJAB cells (mouse, UniProt P50284 31-415); assay: flow cytometry on transduced BJAB cells
T4 construct: whole, on cells; also called LTI3R; mLT R
From the text: as §1

[4] = molecular target: T5, mouse 4-1BB expressed on transduced BJAB cells (mouse, UniProt P20334 24-256); assay: flow cytometry on transduced BJAB cells
T5 construct: whole, on cells; also called m4-1BB; 4-1 BB-IRES-GFP
T5 sequence (looked up): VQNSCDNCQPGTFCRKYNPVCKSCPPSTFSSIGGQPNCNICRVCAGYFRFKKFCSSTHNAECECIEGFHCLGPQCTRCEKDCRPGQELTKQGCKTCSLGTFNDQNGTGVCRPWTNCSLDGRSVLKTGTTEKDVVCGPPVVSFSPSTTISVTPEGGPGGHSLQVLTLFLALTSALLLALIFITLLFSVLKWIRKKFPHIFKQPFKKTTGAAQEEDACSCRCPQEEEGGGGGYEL
From the text: as §1

[5] = molecular target: T6, PD-L1 expressed on NIH 3T3 cells (UniProt Q9EP73 19-265, limits assumed); assay: flow cytometry on NIH 3T3 transfectants
T6 construct: domain: extracellular domains; also called PD-L1-GFP
From the text: as §2

[6] = molecular target: T7, B7x extracellular domain expressed on NIH 3T3 cells (mouse, UniProt Q7TSP5 25-257); assay: flow cytometry on NIH 3T3 transfectants
T7 construct: also called B7x-B7h-GFP; not shown: B7h transmembrane and cytoplasmic domains fused to GFP
T7 sequence: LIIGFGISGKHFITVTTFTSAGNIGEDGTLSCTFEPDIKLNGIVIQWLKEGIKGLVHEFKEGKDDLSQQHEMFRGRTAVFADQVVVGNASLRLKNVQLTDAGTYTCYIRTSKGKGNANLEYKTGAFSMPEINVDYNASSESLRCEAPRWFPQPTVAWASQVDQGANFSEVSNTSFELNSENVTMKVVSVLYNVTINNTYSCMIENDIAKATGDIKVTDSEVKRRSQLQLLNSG
From the text: as §2

T4 sequence (P50284 31-415): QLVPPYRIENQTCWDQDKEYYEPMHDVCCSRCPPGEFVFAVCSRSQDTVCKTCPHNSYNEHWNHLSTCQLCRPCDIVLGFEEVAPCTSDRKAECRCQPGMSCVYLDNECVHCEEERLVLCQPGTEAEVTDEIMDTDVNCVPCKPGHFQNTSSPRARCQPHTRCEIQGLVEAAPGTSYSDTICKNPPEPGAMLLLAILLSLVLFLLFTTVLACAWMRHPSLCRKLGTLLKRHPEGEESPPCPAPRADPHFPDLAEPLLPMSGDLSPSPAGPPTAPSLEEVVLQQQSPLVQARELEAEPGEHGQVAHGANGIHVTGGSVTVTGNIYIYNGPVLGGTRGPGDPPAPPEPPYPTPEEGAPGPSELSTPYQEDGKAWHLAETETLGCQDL
T6 sequence (Q9EP73 19-265 limits assumed): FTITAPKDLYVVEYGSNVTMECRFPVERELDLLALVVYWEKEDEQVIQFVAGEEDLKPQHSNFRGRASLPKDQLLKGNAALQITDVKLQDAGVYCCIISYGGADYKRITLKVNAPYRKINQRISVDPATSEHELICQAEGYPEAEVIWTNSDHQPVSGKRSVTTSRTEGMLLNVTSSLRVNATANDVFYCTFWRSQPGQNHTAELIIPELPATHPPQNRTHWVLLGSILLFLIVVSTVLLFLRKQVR
Chain of SHP-1 (P29350 whole entry): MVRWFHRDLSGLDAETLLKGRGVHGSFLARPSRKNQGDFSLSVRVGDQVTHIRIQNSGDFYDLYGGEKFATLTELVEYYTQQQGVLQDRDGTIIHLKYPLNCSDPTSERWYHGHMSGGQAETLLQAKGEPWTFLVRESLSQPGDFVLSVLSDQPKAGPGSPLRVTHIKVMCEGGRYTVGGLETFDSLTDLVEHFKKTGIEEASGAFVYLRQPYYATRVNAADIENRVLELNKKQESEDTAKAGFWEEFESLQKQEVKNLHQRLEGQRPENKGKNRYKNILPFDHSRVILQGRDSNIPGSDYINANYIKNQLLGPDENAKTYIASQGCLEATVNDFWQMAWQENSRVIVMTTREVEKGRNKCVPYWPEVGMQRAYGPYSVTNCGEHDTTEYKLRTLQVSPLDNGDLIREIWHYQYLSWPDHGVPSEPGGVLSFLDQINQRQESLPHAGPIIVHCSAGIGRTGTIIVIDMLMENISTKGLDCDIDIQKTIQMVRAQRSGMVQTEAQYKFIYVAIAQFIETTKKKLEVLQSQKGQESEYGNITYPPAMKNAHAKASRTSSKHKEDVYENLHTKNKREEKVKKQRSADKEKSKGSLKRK

- binding result [1]: binds
B1: human BTLA-Fc fusion protein (Fc fusion)
chain: KESCDVQLYIKRQSEHSILAGDPFELECPVKYCANRPHVTWCKLNGTTCVKLEDRQTSWKEEKNISFFILHFEPMLPNDNGSYRCSANFQSNLIESHSTTLYVTDVKGASERPSKDEVA
notes: Used as 1 ml of supernatant for staining; also called hBTLA-Fc; not shown: Fc-αTP part of the CD47-Fc-αTP-ires-GFP-RV vector (detected with anti-human IgG)

- binding result (SHP-1): no binding
- binding result (SHIP): no binding
- binding result (Grb2): no binding
B2: Myc-tagged full length human BTLA, tyrosine-phosphorylated (pervanadate) (receptor)
chain: KESCDVQLYIKRQSEHSILAGDPFELECPVKYCANRPHVTWCKLNGTTCVKLEDRQTSWKEEKNISFFILHFEPMLPNDNGSYRCSANFQSNLIESHSTTLYVTDVKGASERPSKDEVASRPWLLYSLLPLGGLPLLITTWFCLFCCLRRHQGKQNELSDTAGREINLVDAHLKSEQTEASTRQNSQVLLSEAGIYDNDPDLCFRMQEGSEVCSNPCLEENKPGIVYASLNHSVIGLNSRLARNVKEAPTEYASICVRS
modifications: tyrosine-phosphorylated after pervanadate treatment (Y226, Y257, Y282 are the tyrosines studied)
notes: Expressed in Jurkat T cells; also called myc-hBTLA; Myc3-hBTLA; not shown: triple Myc tag inserted downstream of the signal peptide

- binding result [2]: no binding
B3: mB7x-Fc fusion protein (Fc fusion)
chain: T7 sequence
notes: not shown: Fc-αTP part of the CD47-Fc-αTP-ires-GFP-RV vector (detected with anti-human IgG)
- binding result [1]: no binding (tested: 200 ng of purified Fc-fusion protein)

- binding result [3]: no binding
- binding result [1]: no binding
- binding result [4]: no binding
B4: C57BL/6 BTLA tetramer-phycoerythrin (other)
chain: EKATKRNDEECPVQLTITRNSKQSARTGELFKIQCPVKYCVHRPNVTWCKHNGTICVPLEVSPQLYTSWEENQSVPVFVLHFKPIHLSDNGSYSCSTNFNSQVINSHSVTIHVTERTQNSSEHPLIISDIPDATNASGGGLNDIFEAQKIEWHE
modifications: biotinylated in vitro with BirA ligase on the C-terminal BirA sequence; bound to streptavidin-phycoerythrin
notes: also called B6-BTLA pET28 product

B5: mouse BTLA-Fc fusion protein (Fc fusion)
chain: EKATKRNDEECPVQLTITRNSKQSARTGELFKIQCPVKYCVHRPNVTWCKHNGTICVPLEVSPQLYTSWEENQSVPVFVLHFKPIHLSDNGSYSCSTNFNSQVINSHSVTIHVTERTQNSSEHPLIISDIPDATNAS
notes: also called mBTLA-Fc; not shown: Fc-αTP part of the CD47-Fc-αTP-ires-GFP-RV vector (detected with anti-human IgG)
- binding result [1]: no binding (tested: 200 ng of purified Fc-fusion protein)

- binding result [5]: no binding
- binding result [6]: no binding
- binding result [1]: no binding
B6: mouse BTLA tetramer (allele not stated at these places) (other, UniProt Q7TSA3 30-166, looked up)
chain: EKATKRNDEECPVQLTITRNSKQSARTGELFKIQCPVKYCVHRPNVTWCKHNGTICVPLEVSPQLYTSWEENQSVPVFVLHFKPIHLSDNGSYSCSTNFNSQVINSHSVTIHVRERTQNSSEHPLITVSDIPDATNA
modifications: biotinylated; bound to streptavidin-phycoerythrin
notes: domain: BTLA Ig domain; also called BTLA tetramers; tetramers of mouse BTLA

- binding result [3]: no binding
- binding result [1]: no binding
- binding result [4]: no binding
B7: BALB/c BTLA tetramer-phycoerythrin (other)
chain: DEECEVQLNIKRNSKHSAWTGELFKIECPVKYCVHRPNVTWCKHNGTIWVPLEVGPQLYTSWEENRSVPVFVLHFKPIHLSDNGSYSCSTWFWSQVINSHSVTIHVR
modifications: biotinylated in vitro with BirA ligase; bound to streptavidin-phycoerythrin
notes: also called BALB-BTLA pET28 product; not shown: biotinylation tag of the MLL1-pET28 vector
